Data on 1 molecule can be found in US11389485.

In test [1] the target is CD33 variant having the fragment encoded by exon 2 deleted (CD33ex2) (human) (UniProt P20138). The experiment in a line: cell-based or functional assay.
The target of test [2] is human CD33, full-length (CD33M) (human) (UniProt P20138). Description: cell-based or functional assay.

B1: gemtuzumab ozogamicin (antibody, INN chains, looked up, V domains shown)
VH: EVQLVQSGAEVKKPGSSVKVSCKASGYTITDSNIHWVRQAPGQSLEWIGYIYPYNGGTDYNQKFKNRATLTVDNPTNTAYMELSSLRSEDTAFYYCVNGNPWLAYWGQGTLVTVSS
VL: DIQLTQSPSTLSASVGDRVTITCRASESLDNYGIRFLTWFQQKPGKAPKLLMYAASNQGSGVPSRFSGSGSGTEFTLTISSLQPDDFATYYCQQTKEVPWSFGQGTKVEVKR
modifications: ozogamicin (calicheamicin) conjugate
The molecule B1 gave an IC50 of GO cytotoxicity, HSPC CD33ex2 in test [1] of 0.246 µg/mL. In test [2], this molecule gave an IC50 of GO cytotoxicity (viable cell number, Celltiter Glo, 72 h), HL-60 cells of 0.0355 µg/mL; an IC50 of GO cytotoxicity (viable cell number, Celltiter Glo, 72 h), THP-1 cells of 0.0163 µg/mL; an IC50 of GO cytotoxicity, wild-type HSPC of 0.0934 µg/mL.
